According to PMC3795262:

Molecular target: Full-length recombinant human TSG-6 (secreted product of tumor necrosis factor-stimulated gene-6) (human) (UniProt P98066)
Assay: not stated; preliminary results, data not shown

Chain of UniProt P98066 (P98066 18-277): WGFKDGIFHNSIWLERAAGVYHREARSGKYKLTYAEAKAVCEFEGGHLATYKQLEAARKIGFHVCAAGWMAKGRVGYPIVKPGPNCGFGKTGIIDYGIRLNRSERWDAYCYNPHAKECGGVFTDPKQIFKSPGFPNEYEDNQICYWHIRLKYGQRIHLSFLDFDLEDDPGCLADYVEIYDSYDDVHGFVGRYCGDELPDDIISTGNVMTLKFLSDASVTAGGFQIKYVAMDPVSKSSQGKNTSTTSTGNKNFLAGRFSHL

Substance “Inter-α-inhibitor (from UniProt P19827 35-672; P19823 55-702) (complex)” has a Kd of 0.01 µM.
